# Measured values taken from the DeepSol protein solubility set.
# Test: soluble on expression in E. coli; label from the status in PepcDB or PDB records
row,Sequence,soluble on expression in E. coli
1,MSYEDWAGGIRCSECGREYTGIECPICRQADPTEREVVTEHGNGRGDQQPPENGTVSADSGVYDIDKIEHERHTDAEKVNPEVVDPSDYVTRAVSGVVFNKRHAWKAENRADEDNPPSLFVVTTADSEFNWIEIPLWDDAEGAMEDISIGDPIQAEGKLSKDNGVHNIHVHSQDSIDILTEPPEVKFDSMAIDQITSTTPKVDLEGTVERVGEIKDIQLDDEKVKLREIHVSDLNNDQIQVALWRTNAYEKVAPGDEIIIAGGLAKPHNEKVVVRVGWSGHIGYRSSLEHHHHHH,not soluble
2,MSYKIVIDSCGELLDEWKKDPRFESVALTLSVGGENIIDDENFDQASFLKKVADCPECPKSACPSPERYMRAFDCDADHVYAVTLSAELSGSYNSAVLGKSLLQEENPGKQIYVFNSKSASVGQSLIAMKIQECEEAGYSFEKVIETVEAYIADQHTFFVLDNLETLRKNGRLSKVKALVASALKIKPVMGSTDEGAICQLDQARGMNKALVKMAQNIVDKTKDSENKILAISHCNCRERAVLLKNALEERMPVKHIVILDTAGVSSMYANDGGVIVAV,not soluble
3,MSYNSIRLPQDLPIYYKNFFPVKPFTKWLRYGQNNGDYFNRREFAFILADDVHIRYRSYNDEHAFFKALSSTNPEKLDIGAVYNHEPINNKRHTDYQAVERELVFDIDLTDYDPVRNCCKDATVCPKCWKFMVLAVKILDFQLEDMFDFKARMWVFSGRRGVHCWVGDKKARMLNNYQRSAIATRLNLFKKNGQCEVTEGRAKMTKVPPIVRDAFNVALKDGVFEKMIYDQGWLDKEDFITEYKFMSEVGRDDLRSLSETYKTPQERWNMIRGLFDDDYRKSLSPKDGLLDFKMQGRDRNYLLYFVLQRCYPRLDVNVSTGTNHLLKSPFCIHPKTGNVAVPLNVGKIEEFDVSKCPRIDHVVEELSSLLAERGNDENEDSKNRKFLAYKHGALAPYVENFEKFVSACIS,not soluble
4,MSYSDYPSDIADYSSFDNMMADICNPSSSSSSNRKRQADPAPDNFAKIPAGMATQPLYFPIHYPVNSGWQSFDVNQVYNNHNMNQPGFGWVALPPPMPHNLQIPDQNSYKPRSGLPVPPPMAEFQDVNGIQQNPNEIFKNAPITSAMCTPESDISTSTNLTPDQDSAQLPLTEQELNEEKNFVVNIESPGKLAHYFLPNVESEQEPNEHIPYPYAKSLFPTFGVPVSSDGNVVAEVVDGRLPAVGTRSKYDITVDEIRRRCGAPEHMNQSALYCFFRKSKKREAINRVKQVLTVHNIPMRTMQRQRKVTCFSPFLEEEATALARDLDSISEEFLPINIIAQEMLEKLMSSGNNLDVCHRMLKNTTATITRVIKTLEVRQPKITGQEEKLKGNNLDLSYHNFSLITHGFGHPNSLSHYRSYLSIVERAVLLCEKIQNGQSLLSNEDVIPGQKPFERMSNEYFVEWQMNLYKKKLAKQMEEVEENKSQRGEHQQIHQHQLYQQHHTNTHPPMPLMPPSQMNLCPPITPIPPQNVYYY,not soluble
5,MSYVAEKKKIANVLSNRYASAELTELWSPEAKILLERQLWIAVMKAQKNLGVDIPTEAISAYEAVIDRIDLDSIAQREKITRHDVKARIEEFNALAGYEHIHKGMTSRDLTENVEQLQIYRSLEMMRNKSVSVAAAIAQHAAQYQSLVMAGRSHNVAAQATTLGKRFASAAEEILVAIDRVEDLLSRYPLRGIKGPMGTAQDMLDLVGGDESKLAALETQIADHLGIARVFDSVGQVYPRSLDFDAVSALVQLGAGPSSLAHTIRLMAGNETVTEGFKEGQVGSSAMPHKMNARSCERVGGLQVILRGYLTMVADLSGQQWNEGDVFCSVIRRVALPDAFFALDGMYETFLTVLAEFGAFPAMIDRELERYLPFLATTRILMAAVRVGVGRETAHEVIKENAVAVALNMRENGGEQDLIDRLAADERLPMTREQLDEALADRHAFIGAAESQVARVVDRVNDLVRRYPAAAQYTPGDIL,not soluble
6,MSYYHHHHHHDYDIPTTENLYFQGAMGSGIPMSLPGSTHSTAAELTGPSLVEVLRARPWFEEPPKAVELEGLAACEGEYSQKYSTMSPLGSGAFGFVWTAVDKEKNKEVVVKFIKKEKVLEDCWIEDPKLGKVTLEIAILSRVEHANIIKVLDIFENQGFFQLVMEKHGSGLDLFAFIDRHPRLDEPLASYIFRQLVSAVGYLRLKDIIHRDIKDENIVIAEDFTIKLIDFGSAAYLERGKLFYTFCGTIEYCAPEVLMGNPYRGPELEMWSLGVTLYTLVFEENPFCELEETVEAAIHPPYLVSKELMSLVSGLLQPVPERRTTLEKLVTDPWVTQPVNLADYTWEEVCRVNKPESGVLSAASLEMGN,soluble
